Here are results for one molecule from publication PMC12186490 (2025).

The target in test [1] is T1, fluorescein-labeled synthetic NRPS-inducing peptide (NIP) (Streptococcus salivarius K12, fluorescein label). The experiment in a line: FP; pH 7.5.
The target of test [2] is T1, fluorescein-labeled synthetic …. In words: FP; pH 5.0.
Test [3] shares this target. The experiment in a line: FP; pH 7.5. The source holds these as a separate data set.
The target is the same in test [4]. In words: FP; pH 7.0.
Test [5] has the same target. In words: FP; pH 5.5.
For test [6] the target is unchanged. The experiment in a line: FP; pH 6.0.
Test [7] shares this target. In words: FP; pH 5.5. The source holds these as a separate data set.
Test [8] has the same target. The experiment in a line: FP; pH 6.5.

B1: NRPS regulator NrpR (amino acids 1-285), recombinant, untagged (receptor)
chain: GSHMNFGQAIDHLRRQKHFSVKQICGNYLSRQTYYRFVNNEVDISSTKLFYLLNHLNVNVDEFLFICNNFQLEKEFTDMEKIKIYFEKNNIVGLQNLLTSYSSQINVKEKIIYALISSLLGRLTNTSSCTEEKILRDYLINIETWTHYETVLFNNAMFIFDSEFIELIFRKINLNLEKYSTLRYYGNESIRMFINMIILYIDRQDIRRAKEALQIAKNFKINDDCMYEKSCIVFFNEVLNLLNGEISSLKICKSIIKYFNLIGSLSIAAMFESYLDTLIKNNPHITFN
One may read the Kd as the constant that tells how readily two partners part at equilibrium. Read a low Kd as tighter binding. As to B1, the Kd is 20.4 nM in test [1]; 18 nM in test [2]; 26 nM in test [3]; 18.4 nM in test [4]; 7.5 nM in test [5]; 12.2 nM in test [6]. Besides, the Kd in test [7] is 6.1 nM; in test [8] it was 16.2 nM.
